In patent publication US12281162 (LANOVA MEDICINES DEVELOPMENT, dated 2025):
Where a chain is given by its changes, count along the chain named.

B1: 34-XI (antibody, V domains shown)
VH: EVHLVESGGDLVKPGGSLKLSCAASGFTFSSYGMSWVRQTPDKRLEWVATISSGGSYTYYPDSVKGRFTISRDNAKNTLNLQMSSLKSEDTAMYYCARQGGDAMDYWGQGTSVTVSS
VL: DIVLTQSPATLSVTPGDSVSLSCRASQSINNNLHWYQQKSHESPRLLIKYASQSISGIPSRFSGSGSGTDFTLSINSVETEDFGMYFCQQSNSRLTFGAGTKLELK
notes: also called 34D3H1 (chimeric)
B2: 37B9C4-XI (antibody, V domains shown)
VH: EVNLEESGGGLVQPGGSMKLSCVASGFTFSDYWMNWVRQSPEKGLEWVAEIRLKSNNYATHYAESVKGRFTISRDDSKSSVYLQMNNLRAEDTGIYYCTRPLLWFRRYYAMDYWGQGTSVTVSS
VL: DIQMTQTTSSLSASLGDRITISCSASQGISNYLNWYQQKPDGTVKLLIYYTSSLHSGVPSRFSGSGSGTDYSLTISNLEPADIATYYCQQYSKLPFTFGSGTKLEIK
notes: also called 37B9C4 (chimeric); 37-XI
B3: 58F9G10-XI (antibody, V domains shown)
VH: EVQLQQSGPELVKTGASVKISCKASGYSFTGYYIHWVKQSHGKSLEWIGYISCYNGATSFNQKFKGKATFTVDTSSSTAYMQFNSLTSEDSAVYYCARTELRGPWFAYWGQGTLVTVSA
VL: QTVLTQSPAIMSASPGEKVTMTCSASSSVSYMNWYQQKSGTSPKRWIYDTSKLASGVPARFSGSGSGTSYSLTISSMEAEDAATYYCQQWSNNPLTFGAGTKLELK
notes: also called 58F9G10 (chimeric); 58-XI
B4: 6-H1L1 (antibody, V domains shown)
VH: QVQLVQSGAEVKKPGASVKVSCKASGYTFTTYTMHWVRQAPGQGLEWMGYINPSSGYTNYNQKFKDRVTMTRDTSTSTVYMELSSLRSEDTAVYYCSRLRSRGYFDYWGQGTLVTVSS
VL: DIQLTQSPSFLSASVGDRVTITCKASQNVGTAVVWYQQKPGKAPKLLIYSASNRYTGVPSRFSGSGSGTEFTLTISSLQPEDFATYYCQQYSSYPYTFGQGTKLEIK
notes: humanized 6G10D9, VH v1 x VL v1
B5: 6-H3L1 (antibody, V domains shown)
VH: B4 VH with K12A, R38K, M48L, R72A, S97A, R98S
VL: B4 VL
notes: humanized 6G10D9, VH v3 x VL v1
B6: 6-H3L2 (antibody, V domains shown)
VH: B4 VH with K12A, R38K, M48L, R72A, S97A, R98S
VL: B4 VL with A13T, A43S, Y86F
notes: humanized 6G10D9, VH v3 x VL v2
B7: 6-H4L1 (antibody, V domains shown)
VH: B4 VH with K12A, V20M, R38K, M48L, M70L, R72A, S97A, R98S, V114L
VL: B4 VL
notes: humanized 6G10D9, VH v4 x VL v1

Columns and labels:
[1] = target: T1, human G-protein-coupled receptor family C group 5 member D (GPRC5D) (human, UniProt Q9NZD1 1-345); assay: FACS, CHO-K1/human GPRC5D
T1 construct: whole, on cells; also called human GPRC5D protein
T1 sequence (Q9NZD1 whole entry): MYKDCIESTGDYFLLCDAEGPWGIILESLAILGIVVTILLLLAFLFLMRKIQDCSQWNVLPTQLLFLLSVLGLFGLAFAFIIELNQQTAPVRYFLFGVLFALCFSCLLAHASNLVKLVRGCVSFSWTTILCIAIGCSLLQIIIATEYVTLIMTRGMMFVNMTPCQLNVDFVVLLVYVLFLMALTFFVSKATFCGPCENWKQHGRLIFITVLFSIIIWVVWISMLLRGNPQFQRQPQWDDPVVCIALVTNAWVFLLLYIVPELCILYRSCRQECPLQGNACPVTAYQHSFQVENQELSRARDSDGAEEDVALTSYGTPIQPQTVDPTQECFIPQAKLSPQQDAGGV

[2] = target: T1, human G-protein-coupled receptor family …; assay: FACS, CHO-K1/GPRC5D
[3] = target: T1, human G-protein-coupled receptor family …; assay: FACS, CHO-K1/human GPRC5D, chimeric antibody
Description: CHO—K1 cells stably expressed human GPRC5D, were harvested from flasks. 100 µl of 1×10⁶ cells/ml of cells were incubated with primary chimeric antibodies in 3-fold serial dilutions starting from 300 nM to 0.001 nM for 30 minutes on ice. After being washed with 200 µl of FACS buffer twice, cells were incubated with secondary antibody for 30 minutes on ice. Cells were washed with 200 µl of FACS buffer twice and transferred to BD Falcon 5 ml tube and analyzed by FACS.

[4] = target: T1, human G-protein-coupled receptor family …; assay: FACS, NCI-H929 cells
[5] = target: T1, human G-protein-coupled receptor family …; assay: FACS, CHO-K1/GPRC5D; remark: listed apart in the source
[6] = target: T1, human G-protein-coupled receptor family …; assay: FACS, CHO-K1/GPRC5D; remark: listed apart in the source
[7] = target: T1, human G-protein-coupled receptor family …; assay: FACS, CHO-K1/GPRC5D; remark: listed apart in the source

Row | Binder | Bottom [1] | LogEC50 [1] | Span [1] | Top [1] | Bottom [3] | LogEC50 [3] | Span [3] | Top [3] | Bottom [4] | LogEC50 [4] | Span [4] | Top [4] | Bottom [7] | LogEC50 [7] | Span [7] | Top [7] | further results
1 | B1 | 689 | 0.578 | 117000 | 118000 | 3450 | 0.521 | 504000 | 508000 | 181 | 0.759 | 18000 | 18100 |  |  |  |  | Bottom [2]: 16500; LogEC50 [2]: 0.495; Span [2]: 176000; Top [2]: 192000
2 | B2 | 793 | 0.388 | 113000 | 113000 | 2080 | 0.249 | 403000 | 405000 | 338 | -0.0562 | 13500 | 13800 |  |  |  |  | Bottom [5]: 11700; LogEC50 [5]: 0.236; Span [5]: 177000; Top [5]: 188000
3 | B3 | 52.2 | 0.556 | 107000 | 107000 | -522 | 0.36 | 415000 | 415000 | 261 | 0.16 | 14500 | 14700 |  |  |  |  | Bottom [6]: 6700; LogEC50 [6]: 0.292; Span [6]: 121000; Top [6]: 127000
4 | B4 |  |  |  |  |  |  |  |  |  |  |  |  | 193 | ~3.1 | ~6200 | ~6400 | 
5 | B5 |  |  |  |  |  |  |  |  |  |  |  |  | -205 | 2.35 | 74500 | 74300 | 
6 | B6 |  |  |  |  |  |  |  |  |  |  |  |  | 68.9 | 2.24 | 47400 | 47500 | 
7 | B7 |  |  |  |  |  |  |  |  |  |  |  |  | 61.5 | 1.65 | 50200 | 50300 | 
